Experimental findings from patent US20130344077A1 (VET THERAPEUTICS, published 2013) are described below.

Experiment [1] concerns the target target antigen of mab 231 on canine lymphoma cells (canine). Put plainly: FACS on canine lymphoma cells positive for the mab 231 antigen, anti-mouse IgG secondary.
For experiment [2] the target is unchanged. The experiment is described as follows: FACS on canine lymphoma cells positive for the mab 231 antigen, FITC anti-dog IgG secondary.

B1: murine anti-canine lymphoma monoclonal antibody mab 231 (ATCC HB-9401) (antibody, V domains shown)
VH: EVKLVESGGGLVQPGGSLKLSCATSGFTFSDYYMYWVRQTPEKRLEWVAYISNGGGSTYYPDTVKGRFTISRDNAKNTLYLQMSRLKSEDTAMYYCARHGGYYAMDYWGQGTSVTVSS
VL: DIQMNQSPSSLSASLGDTITITCHASQNINVWLSWYQQKPGNIPKLLIYKASNLHTGVPSRFSGSGSGTGFTLTISSLQPEDIATYYCQQGQSYPLTFGGGTKLEIK
On to B1, for which, in experiment [1], the Binding (%) stood at 74.2%.

B2: VET118 VET218 anti-canine lymphoma antibody variant (mab 231 variable domains with canine FR4) (antibody)
light: DIQMNQSPSSLSASLGDTITITCHASQNINVWLSWYQQKPGNIPKLLIYKASNLHTGVPSRFSGSGSGTGFTLTISSLQPEDIATYYCQQGQSYPLTFGGGTHLTVLGQPKASPSVTLFPPSSEELGANKATLVCLISDFYPSGVTVAWKADGSPITQGVETTKPSKQSNNKYAASSYLSLTPDKWKSHSSFSCLVTHEGSTVEKKVAPAECS
heavy: EVKLVESGGGLVQPGGSLKLSCATSGFTFSDYYMYWVRQTPEKRLEWVAYISNGGGSTYYPDTVKGRFTISRDNAKNTLYLQMSRLKSEDTAMYYCARHGGYYAMDYWGQGTSVTVSSASTTAPSVFPLAPSCGSTSGSTVALACLVSGYFPEPVTVSWNSGSLTSGVHTFPSVLQSSGLYSLSSMVTVPSSRWPSETFTCNVAHPASKTKVDKPVPKRENGRVPRPPDCPKCPAPEMLGGPSVFIFPPKPKDTLLIARTPEVTCVVVDLDPEDPEVQISWFVDGKQMQTAKTQPREEQFNGTYRVVSVLPIGHQDWLKGKQFTCKVNNKALPSPIERTISKARGQAHQPSVYVLPPSREELSKNTVSLTCLIKDFFPPDIDVEWQSNGQQEPESKYRTTPPQLDEDGSYFLYSKLSVDKSRWQRGDTFICAVMHEALHNHYTQKSLSHSPGK
With B2, the Binding (%) in experiment [2] worked out at 27.2%.
